Test results reported in US20170362293A1 (GENEXINE, published 2017).

Target: GLP-2R
Experiment: cell-based or functional assay

membrane depolarization induced by increased intracellular cAMP in GLP-2R-expressing 293 cells; activity relative to GLP-2-2G peptide set at 100%: 98%
B1: GLP-2-hyFc9 fusion polypeptide (Fc fusion)
chain: HGDGSFSDEMNTILDNLAARDFINWLIQTKITDAKATTAPATTRNTGRGGEEKKKEKEKEEQEERETKTPECPSHTQPLGVFLFPPKPKDTLMISRTPEVTCVVVDVSQEDPEVQFNWYVDGVEVHNAKTKPREEQFNSTYRVVSVLTVLHQDWLNGKEYKCKVSNKGLPSSIEKTISKAKGQPREPQVYTLPPSQEEMTKNQVSLTCLVKGFYPSDIAVEWESNGQPENNYKTTPPVLDSDGSFFLYSRLTVDKSRWQEGNVFSCSVMHEALHNHYTQKSLSLSLGK
